Source: US20190367957A1
Read-outs that look alike come from different tables or passages of the source.

T1: cytochrome P-450aluC09 (P450 AluC09) from Amycolatopsis lurida NRRL 2430 (Amycolatopsis lurida NRRL 2430)
T1 sequence: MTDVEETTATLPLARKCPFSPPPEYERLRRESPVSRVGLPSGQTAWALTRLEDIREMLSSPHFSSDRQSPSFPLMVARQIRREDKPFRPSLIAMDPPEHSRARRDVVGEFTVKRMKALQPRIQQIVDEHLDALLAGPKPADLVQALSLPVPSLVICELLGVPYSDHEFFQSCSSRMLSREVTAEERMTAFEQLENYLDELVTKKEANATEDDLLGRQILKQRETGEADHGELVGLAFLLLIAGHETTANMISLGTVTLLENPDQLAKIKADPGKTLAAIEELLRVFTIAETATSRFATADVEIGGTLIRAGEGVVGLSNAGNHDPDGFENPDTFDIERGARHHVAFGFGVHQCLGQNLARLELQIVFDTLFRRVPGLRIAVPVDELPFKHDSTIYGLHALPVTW


Key:
[1] = target: T1, cytochrome P-450aluC09 (P450 AluC09) from Amycolatopsis lurida NRRL 2430 (Amycolatopsis lurida NRRL 2430); assay: cell-based or functional assay
[2] = target: T1, cytochrome P-450aluC09 (P450 AluC09) from Amycolatopsis lurida NRRL 2430 (Amycolatopsis lurida NRRL 2430); assay: cell-based or functional assay; remark: listed apart in the source

Row | % yield of parent-derived products, 4'-HO-diclofenac 310 m/z (whole cell biocatalysis) [1] [%] | % yield of parent-derived products, 5-HO-diclofenac 310 m/z (whole cell biocatalysis) [1] [%] | % yield of parent-derived products, HO-bosentan 568 m/z (whole cell biocatalysis) [1] [%] | % yield of parent-derived products, HO-bosentan 568 m/z (whole cell biocatalysis) [2] [%] | Binder
1 | 11.5 | 4.2 | 6.3 | – | ferredoxin Fd1 from Streptomyces griseus 11796 (protein) TMRVSADRTVCVGAGLCALTAPGVFDQDDDGIVTVLTAEPAADDDRRTAREAGHLCPSGAVRVVEDTE
2 | – | – | – | 21.2 | ferredoxin CamB from Pseudomonas putida ATCC 17453 (protein) SKVVYVSHDGTRRELDVADGVSLMQAAVSNGIYDIVGDCGGSASCATCHVYVNEAFTDKVPAANEREIGMLECVTAELKPNSRLCCQIIMTPELDGIVVDVPDRQW
3 | 60.3 | 23.8 | 52.6 | 27.4 | ferredoxin AluF03 from Amycolatopsis lurida NRRL 2430 (protein) MKIIADTGKCVGAGQCVLTDPDLFDQSEDDGTVLVLNAEPEGEEAEENARTAVHICPGQALSLA
